Assay results from publication PMC11382887, “Molecular mechanism of HNF-1A–mediated HNF4A gene regulation and promoter-driven HNF4A-MODY diabetes”.

Experiments:
[1] = target: T1, HNF-1A DD-DBD (HNF-1A 1-279) (UniProt P20823 1-279); assay: ITC; text refers to ref 36; Methods also list RA among the titrations done here; ITC: 20 mM HEPES pH 7.5, 200 mM NaCl, 1 mM TCEP, 30 C, 250 uM dsDNA into 50 uM protein; BLI: streptavidin sensor with BiotinTEG dsDNA, buffer not in material; details: protein: recombinant; tags: His6 removed by TEV; chain copies: 2; label: 5' BiotinTEG on forward strand (BLI only); blunt
[2] = target: T1, HNF-1A DD-DBD (HNF-1A 1-279); assay: ITC; 2:1 protein:DNA stoichiometry; ITC: 20 mM HEPES pH 7.5, 200 mM NaCl, 1 mM TCEP, 30 C, 250 uM dsDNA into 50 uM protein; BLI: streptavidin sensor with BiotinTEG dsDNA, buffer not in material; details: protein: recombinant; tags: His6 removed by TEV; chain copies: 2; label: 5' BiotinTEG on forward strand (BLI only); blunt
[3] = target: T1, HNF-1A DD-DBD (HNF-1A 1-279); assay: BLI; ITC: 20 mM HEPES pH 7.5, 200 mM NaCl, 1 mM TCEP, 30 C, 250 uM dsDNA into 50 uM protein; BLI: streptavidin sensor with BiotinTEG dsDNA, buffer not in material; details: protein: recombinant; tags: His6 removed by TEV; chain copies: 2; label: 5' BiotinTEG on forward strand; blunt
[4] = target: T1, HNF-1A DD-DBD (HNF-1A 1-279); assay: ITC; ITC: 20 mM HEPES pH 7.5, 200 mM NaCl, 1 mM TCEP, 30 C, 250 uM dsDNA into 50 uM protein; BLI: streptavidin sensor with BiotinTEG dsDNA, buffer not in material; details: protein: recombinant; tags: His6 removed by TEV; chain copies: 2; label: 5' BiotinTEG on forward strand (BLI only); blunt
[5] = target: T1, HNF-1A DD-DBD (HNF-1A 1-279); assay: BLI; kinetic Kd (koff/kon); ITC: 20 mM HEPES pH 7.5, 200 mM NaCl, 1 mM TCEP, 30 C, 250 uM dsDNA into 50 uM protein; BLI: streptavidin sensor with BiotinTEG dsDNA, buffer not in material; details: protein: recombinant; tags: His6 removed by TEV; chain copies: 2; label: 5' BiotinTEG on forward strand (BLI only); blunt
[6] = target: T1, HNF-1A DD-DBD (HNF-1A 1-279); assay: ITC; increase vs WT not significant; ITC: 20 mM HEPES pH 7.5, 200 mM NaCl, 1 mM TCEP, 30 C, 250 uM dsDNA into 50 uM protein; BLI: streptavidin sensor with BiotinTEG dsDNA, buffer not in material; details: protein: recombinant; tags: His6 removed by TEV; chain copies: 2; label: 5' BiotinTEG on forward strand (BLI only); blunt
[7] = target: T1, HNF-1A DD-DBD (HNF-1A 1-279); assay: BLI; kinetic Kd (koff/kon); kon ~3x lower, koff ~3x higher; ITC: 20 mM HEPES pH 7.5, 200 mM NaCl, 1 mM TCEP, 30 C, 250 uM dsDNA into 50 uM protein; BLI: streptavidin sensor with BiotinTEG dsDNA, buffer not in material; details: protein: recombinant; tags: His6 removed by TEV; chain copies: 2; label: 5' BiotinTEG on forward strand (BLI only); blunt

T1 sequence (P20823 1-279): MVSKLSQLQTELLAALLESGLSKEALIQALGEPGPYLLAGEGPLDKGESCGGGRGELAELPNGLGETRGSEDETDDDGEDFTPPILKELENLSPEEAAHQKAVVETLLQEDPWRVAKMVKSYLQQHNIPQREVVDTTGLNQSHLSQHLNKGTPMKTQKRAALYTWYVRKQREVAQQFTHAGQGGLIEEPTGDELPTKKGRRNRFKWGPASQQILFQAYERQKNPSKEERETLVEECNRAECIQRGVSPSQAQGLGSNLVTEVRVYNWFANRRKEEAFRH

B1: RA (rat albumin promoter) (dsDNA)
DNA 1: CTTGGTTAATAATTCACCAGA
DNA 2: TCTGGTGAATTATTAACCAAG
For B1, the Kd [1] was 100 ± 50 nM.

B2: P2 WT (P2-HNF4A promoter) (dsDNA)
DNA 1: ACTGGTTACTCTTTAACGTAT
DNA 2: ATACGTTAAAGAGTAACCAGT
With B2 the Kd [2] was 304 ± 134 nM.

B3: Randomized sequence (dsDNA)
DNA 1: TCATCATATCATGCTATAAAT
DNA 2: ATTTATAGCATGATATGATGA
B3: no binding [3].

B4: P2 -169C>T (dsDNA)
DNA 1: ACTGGTTACTCTTTAATGTAT
DNA 2: ATACATTAAAGAGTAACCAGT
In the case of B4, the Kd [4] is reported as 1200 nM and the “Kd fold change vs P2 WT” value [5] is reported as roughly 5 fold Kd vs P2 WT.

B5: P2 -181G>A (dsDNA)
DNA 1: ACTGATTACTCTTTAACGTAT
DNA 2: ATACGTTAAAGAGTAATCAGT
Work on B5 yielded a Kd [6] of 600 nM.

B6: P2 -181G>T (dsDNA)
DNA 1: ACTGTTTACTCTTTAACGTAT
DNA 2: ATACGTTAAAGAGTAAACAGT
Work on B6 yielded a Kd [4] of 700 nM and a binding signal [7] of roughly 10 fold Kd vs P2 WT.
